# Data taken from patent US20140178935A1 (AVEO PHARMACEUTICALS, published 2014).
# Positions count from the first letter of the chain named.
# T1: recombinant mhm chimeric HGF protein containing the region I499-R556 of hHGF disposed between murine sequences (mouse-human-mouse chimera, UniProt Q08048 56-728)
# T1 construct: also called mhm chimera (I499-R556)
# T1 chain: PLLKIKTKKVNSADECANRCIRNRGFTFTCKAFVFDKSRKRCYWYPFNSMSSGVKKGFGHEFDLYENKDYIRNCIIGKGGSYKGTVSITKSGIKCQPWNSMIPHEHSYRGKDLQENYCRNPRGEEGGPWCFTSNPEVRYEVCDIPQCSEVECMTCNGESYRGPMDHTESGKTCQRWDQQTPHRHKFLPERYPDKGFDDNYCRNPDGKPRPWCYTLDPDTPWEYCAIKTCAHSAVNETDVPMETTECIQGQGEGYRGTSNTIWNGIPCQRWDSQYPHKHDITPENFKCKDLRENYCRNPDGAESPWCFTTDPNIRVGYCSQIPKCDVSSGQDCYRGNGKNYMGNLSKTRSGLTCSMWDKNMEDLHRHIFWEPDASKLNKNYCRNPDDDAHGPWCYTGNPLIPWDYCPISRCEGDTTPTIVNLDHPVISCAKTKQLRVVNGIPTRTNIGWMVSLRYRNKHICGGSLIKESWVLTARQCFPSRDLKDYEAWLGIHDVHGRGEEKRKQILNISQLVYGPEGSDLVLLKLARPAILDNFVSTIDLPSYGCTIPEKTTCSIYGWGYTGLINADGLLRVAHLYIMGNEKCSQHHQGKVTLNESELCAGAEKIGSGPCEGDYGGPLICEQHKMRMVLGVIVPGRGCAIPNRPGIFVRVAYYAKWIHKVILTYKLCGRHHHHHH
# T2: recombinant mhm chimeric HGF protein containing human W507-L585 HGF sequence disposed within mouse HGF … (mouse-human-mouse chimera, UniProt Q08048 56-728)
# T2 construct: CHO supernatant; also called mhm chimera (W507-L585); MHM chimera (507-585)
# T2 chain: T1 chain with R443Q, N445T, I446V, E499D, R502C, I505V, I508V, L523M
# B1: sh2B8-9 (G1m(3)) = hu2B8 Hv5-51.1 + IgG1 constant region (G1m(3) allotype, allele 2) plus hu2B8 Kv1-39.1 + Kappa constant region (Km(3) allotype, allele 2) (antibody)
# heavy: not shown
# light: DIQMTQSPSSLSASVGDRVTITCKASENVVSYVSWYQQKPGKAPKLLIYGASNRNTGVPSRFSGSGSGTDFTLTISSLQPEDFATYYCGQSYNYPYTFGQGTKLEIKRTVAAPSVFIFPPSDEQLKSGTASVVCLLNNFYPREAKVQWKVDNALQSGNSQESVTEQDSKDSTYSLSSTLTLSKADYEKHKVYACEVTHQGLSSPVTKSFNRGEC
# notes: Superhumanized 2B8 variant, human IgG1 kappa, made in 293T cells
# B2: HE2B8-1 (LR2B8HC + IgG1 constant region G1m(3) allotype allele 1, plus LR2B8LC + Kappa constant region Km(3) allotype allele 1) (antibody, V domains shown)
# VH: QVQLVQPGAEVVKPGTSVKLSCKASGYTFTTYWMHWVNQAPGQGLEWIGEINPTNGHTNYNEKFKGKATLTVDKSTSTAYMELSSLRSEDTAVYYCARNYVGSIFDYWGQGTLLTVSS
# VL: DIVMTQSPDSMAMSVGERVTLNCKASENVVSYVSWYQQKPGQSPKLLIYGASNRNTGVPDRFSGSGSATDFTLTISSVQAEDVADYHCGQSYNYPYTFGQGTKLEIKR
# notes: Human Engineered 2B8 variant, human IgG1 kappa, made in HEK293E cells
# B3: HE2B8-3 (LRMR2B8HC + IgG1 constant region G1m(3) allotype allele 1, plus LR2B8LC + Kappa constant region Km(3) allotype allele 1) (antibody, V domains shown)
# VH: B2 VH with V12K, N38R, E62Q, K65Q, K67R
# VL: B2 VL
# notes: as for B2
# B4: HE2B8-2 (LR2B8HC + IgG1 constant region G1m(3) allotype allele 1, plus LRMR2B8LC + Kappa constant region Km(3) allotype allele 1) (antibody, V domains shown)
# VH: B2 VH
# VL: B2 VL with M11L, V15L, N55E, T56S
# notes: as for B2
# Target: T3, recombinant human HGF (R&D Systems, Catalog No. 294-HGN-025) (human, UniProt P14210 32-728)
# T3 construct: Mature HGF is a disulfide-linked heterodimer of alpha and beta chain cut from one precursor; also called rhHGF (R&D Systems); rhHGF
# Experiment: SPR, captured antibody, HGF injected, 37 C
# Method: Mouse anti-human immunoglobulins (Jackson Labs, Catalog No. 209-005) or rabbit anti-mouse immunoglobulins (BIAcore, Catalog No. BR-1005-14) were immobilized on carboxymethylated dextran CM4 sensor chips (BIAcore, Catalog No. BR-1006-68) by amine coupling (BIAcore, Catalog No. BR-1000-50) using a standard coupling protocol according to manufacturer's instructions. […] The analyses were performed at 25° C. and 37° C. using PBS (GIBCO, Catalog No. 14040-133) containing 0.05% surfactant P20 (BIAcore, Catalog No. BR-1000-54), and 2 mg/mL BSA (EMD, Catalog No. 2930) as running buffer.
# The antibodies were captured in an individual flow cell at a flow rate of […]. Injection time was variable for each antibody to yield approximately 20 RU of antibody captured for each cycle. […] The dissociation phase was monitored for 15 or 90 minutes, depending on concentration. The surface of mouse anti-human immunoglobulins sensor chips was then regenerated with 10 mM Glycine-HCl, pH 2.2 (BIAcore, Catalog No. BR-1003-54) injected for 3 minutes at a flow rate of 60 μL/min before another cycle was initiated. The surface of rabbit anti-mouse immunoglobulins sensor chips was regenerated with 10 mM Glycine-HCl, pH 1.7 (BIAcore, Catalog No. BR-1003-54) injected for 3 minutes at a flow rate of 60 μL/min before another cycle was initiated.
# Kinetic parameters were determined using the kinetic function of the BIAevaluation software with reference subtraction.
# T3 sequence (P14210 32-728 limits assumed): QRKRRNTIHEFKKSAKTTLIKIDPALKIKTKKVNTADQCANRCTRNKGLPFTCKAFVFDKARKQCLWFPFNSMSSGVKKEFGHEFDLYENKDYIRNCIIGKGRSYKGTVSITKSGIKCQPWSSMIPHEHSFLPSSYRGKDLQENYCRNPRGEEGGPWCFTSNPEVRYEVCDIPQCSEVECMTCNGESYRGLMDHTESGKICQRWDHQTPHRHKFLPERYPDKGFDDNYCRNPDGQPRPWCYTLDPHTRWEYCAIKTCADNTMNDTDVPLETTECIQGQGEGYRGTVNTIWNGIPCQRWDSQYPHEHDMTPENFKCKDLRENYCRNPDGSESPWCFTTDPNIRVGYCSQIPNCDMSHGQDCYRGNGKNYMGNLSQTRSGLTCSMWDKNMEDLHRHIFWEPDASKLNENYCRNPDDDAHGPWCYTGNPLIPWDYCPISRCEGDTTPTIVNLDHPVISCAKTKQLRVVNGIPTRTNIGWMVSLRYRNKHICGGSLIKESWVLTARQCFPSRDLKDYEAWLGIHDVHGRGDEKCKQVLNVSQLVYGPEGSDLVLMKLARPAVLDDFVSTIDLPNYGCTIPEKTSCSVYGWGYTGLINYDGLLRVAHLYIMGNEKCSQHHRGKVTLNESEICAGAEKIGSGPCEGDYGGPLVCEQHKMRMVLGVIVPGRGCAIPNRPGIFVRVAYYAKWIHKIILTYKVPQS
Kd [nM],koff [s⁻¹],kon [M⁻¹ s⁻¹],Binder
0.0058,1.4e-05,2.5e+06,B1

# Target: T4, recombinant mouse HGF (R&D Systems) (mouse, UniProt Q08048 33-728)
# T4 construct: Bought protein, construct not described; also called rmHGF (R&D Systems); murine HGF
# Experiment: SPR, antibody immobilized, HGF protein injected, 25 C
# Method: (§1) Analyses were performed at 25° C. using PBS (GIBCO, Catalog No. 14040-133) containing 0.05% surfactant P20 (BIAcore, Catalog No. R-1000-54), 2 mg/mL BSA (EMD, Catalog No. 2930) and 10 mg/mL CM-Dextran Sodium salt (Fluka, Catalog No. 86524) as running buffer. […] The resulting binding was determined as resonance units (RU) over baseline 30 seconds after the end of injection. […] Non-specific binding was monitored by comparing binding to a control surface.
# T4 sequence (Q08048 33-728 limits assumed): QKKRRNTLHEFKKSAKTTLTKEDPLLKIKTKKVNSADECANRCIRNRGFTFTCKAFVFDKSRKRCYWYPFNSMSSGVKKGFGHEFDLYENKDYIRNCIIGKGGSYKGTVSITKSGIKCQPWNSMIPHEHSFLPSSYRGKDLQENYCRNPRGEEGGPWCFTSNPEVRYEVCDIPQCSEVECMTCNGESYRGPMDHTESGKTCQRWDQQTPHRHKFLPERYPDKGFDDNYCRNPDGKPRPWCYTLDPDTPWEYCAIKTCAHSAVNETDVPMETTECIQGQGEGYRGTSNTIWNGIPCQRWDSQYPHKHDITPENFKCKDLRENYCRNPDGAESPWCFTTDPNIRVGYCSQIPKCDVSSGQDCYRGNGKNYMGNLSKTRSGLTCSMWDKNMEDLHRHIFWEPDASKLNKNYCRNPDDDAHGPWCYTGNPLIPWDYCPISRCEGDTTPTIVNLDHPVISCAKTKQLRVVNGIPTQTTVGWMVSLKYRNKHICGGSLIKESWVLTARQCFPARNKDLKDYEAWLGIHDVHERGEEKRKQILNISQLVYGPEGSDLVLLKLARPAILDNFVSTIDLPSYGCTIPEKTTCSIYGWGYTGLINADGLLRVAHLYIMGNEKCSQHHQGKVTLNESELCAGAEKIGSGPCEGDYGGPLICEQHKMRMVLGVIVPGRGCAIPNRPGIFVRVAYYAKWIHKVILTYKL
row,binding result,Binder
1,no binding,B2
2,no binding,B3
3,no binding,B4
4,no binding,B1

# Target: T1, recombinant mhm chimeric HGF protein …
# Experiment: as above
# Method: as §1
row,binding result,Binder
1,binds,B2
2,binds,B3
3,binds,B4
4,binds,B1

# Target: T2, recombinant mhm chimeric HGF protein …
# Experiment: as above
# Method: as §1
row,binding result,Binder
1,binds,B2
2,binds,B3
3,binds,B4
4,binds,B1

# Target: T3, recombinant human HGF (R&D Systems, …)
# Experiment: cell-based or functional assay
row,"EC50, inhibition of HGF-stimulated c-Met phosphorylation in PC-3 cells, Average of Two Trials [nM]",Binder
1,0.8,B2
2,0.79,B3
3,0.88,B4
4,0.93,B1

# Target: T3, recombinant human HGF (R&D Systems, …)
# Experiment: cell-based or functional assay
# Remark: another data set of the same source
row,"IC50, neutralization of HGF stimulated BrdU incorporation in 4 MBr-5 cells [nM]",Binder
1,0.47,B2
2,0.55,B3
3,0.66,B4
4,0.52,B1

# Target: T3, recombinant human HGF (R&D Systems, …)
# Experiment: SPR, captured antibody, HGF injected, 25 C
# Method: Mouse anti-human immunoglobulins (Jackson Labs, Catalog No. 209-005) were immobilized on carboxymethylated dextran CM4 sensor chips (BIAcore, Catalog No. BR-1006-68) by amine coupling (BIAcore, Catalog No. BR-1000-50) using a standard coupling protocol according to manufacturer's instructions. The analyses were performed at 25° C. using PBS (GIBCO, Catalog No. 14040-133) containing 0.05% surfactant P20 (BIAcore, Catalog No. BR-1000-54), and 2 mg/mL BSA (EMD, Catalog No. 2930).
# The antibodies were captured in an individual flow cell at a flow rate of 10 μL/min. Injection time was variable for each antibody to yield approximately 20 RU of antibody captured for each cycle. […] The dissociation phase was monitored for 15 or 90 minutes, depending on concentration. The surface then was regenerated with 10 mM Glycine-HCl, pH 2.2 (BIAcore, Catalog No. BR-1003-54) injected for 3 minutes at a flow rate of 60 μL/min before another cycle was initiated.
# Kinetic parameters were determined using the kinetic function of the BIAevalutation™ software with reference subtraction.
Kd [nM],koff [s⁻¹],kon [M⁻¹ s⁻¹],Binder
0.0071,1.4e-05,2.2e+06,B2
0.002,4.1e-06,2e+06,B3
0.0052,9.6e-06,1.8e+06,B4

# Target: T3, recombinant human HGF (R&D Systems, …)
# Experiment: competition ELISA (DELFIA): antibody inhibits biotinylated c-Met binding to plate-coated HGF
# Method: The plates then were blocked with 200 μL of 5% non-fat dry milk in PBS for 1 hour at room temperature. […] 100 μL of sample per well was transferred to the assay plate and incubated for 2 hours at room temperature. The resulting plates were washed three times with PBS-0.1% Tween 20, and incubated for 1 hour at room temperature with Eu-labeled Streptavidin (Wallac, Catalog No. 1244-360) diluted 1:1000 in DELFIA assay buffer (Wallac, Catalog No. 4002-0010). The resulting plates were washed 3 times with DELFIA wash solution (Wallac, Catalog No. 4010-0010) and incubated with 100 μL/well DELFIA enhancement solution (Wallac #4001-0010) for 15 minutes at room temperature with agitation. The plates were read on Victor³V instrument (Perkin Elmer) using the Europium method. The IC₅₀ values were calculated using Prism.
row,IC50 [nM],Binder
1,6,B2
2,5.9,B3
3,5.7,B4
4,4.2,B1
